Measured values reported in patent publication US20170114099A1 (Affibody, published 2017).
Read-outs that look alike come from different tables or passages of the source.

Assays:
Assay in all cases: cell-based or functional assay
[1] = target: T1, human IL-6 receptor alpha (hIL-6Rα) (human, UniProt P08887 20-358, limits assumed)
T1 sequence (looked up): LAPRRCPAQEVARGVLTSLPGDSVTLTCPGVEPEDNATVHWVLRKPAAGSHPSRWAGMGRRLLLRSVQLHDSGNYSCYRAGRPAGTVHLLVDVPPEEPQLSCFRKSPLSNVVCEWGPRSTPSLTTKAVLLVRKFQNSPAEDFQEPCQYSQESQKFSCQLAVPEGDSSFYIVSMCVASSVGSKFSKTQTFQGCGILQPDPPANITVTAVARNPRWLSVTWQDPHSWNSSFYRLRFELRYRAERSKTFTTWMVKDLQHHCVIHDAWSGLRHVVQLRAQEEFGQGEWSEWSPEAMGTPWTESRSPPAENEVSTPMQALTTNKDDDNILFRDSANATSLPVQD

[2] = target: T2, cell surface IL-6 receptor on TF-1 cells (UniProt P08887 20-468, limits assumed)
T2 sequence (looked up): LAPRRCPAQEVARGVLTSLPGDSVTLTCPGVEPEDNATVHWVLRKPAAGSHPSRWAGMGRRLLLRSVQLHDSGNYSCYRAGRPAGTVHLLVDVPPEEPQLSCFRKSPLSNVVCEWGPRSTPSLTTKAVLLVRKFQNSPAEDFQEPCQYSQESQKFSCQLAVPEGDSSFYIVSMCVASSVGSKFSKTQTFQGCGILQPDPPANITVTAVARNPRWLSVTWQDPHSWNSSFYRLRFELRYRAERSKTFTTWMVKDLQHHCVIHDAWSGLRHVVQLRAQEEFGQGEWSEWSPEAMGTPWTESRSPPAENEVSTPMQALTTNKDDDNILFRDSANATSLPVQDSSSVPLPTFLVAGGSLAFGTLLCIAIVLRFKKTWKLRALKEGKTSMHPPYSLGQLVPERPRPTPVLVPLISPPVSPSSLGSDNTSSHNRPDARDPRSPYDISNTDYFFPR

[3] = target: T2, cell surface IL-6 receptor on TF-1 cells; remark: listed apart in the source

B1: tocilizumab (antibody, V domains shown)
VH: QVQLQESGPGLVRPSQTLSLTCTVSGYSITSDHAWSWVRQPPGRGLEWIGYISYSGITTYNPSLKSRVTMLRDTSKNQFSLRLSSVTAADTAVYYCARSLARTTAMDYWGQGSLVTVSS
VL: DIQMTQSPSSLSASVGDRVTITCRASQDISSYLNWYQQKPGKAPKLLIYYTSRLHSGVPSRFSGSGSGTDFTFTISSLQPEDIATYYCQQGNTLPYTFGQGTKVEIKR
IC50, inhibition of IL-6 trans-signaling dependent MCP-1 secretion by HUVECs [1]: ~5 nM
IC50 blocking the IL-6 dependent growth of TF-1 cells [2]: 0.3 nM
IC50 blocking the IL-6 dependent growth of TF-1 cells [3]: 0.41 nM
